From patent US10874712B2, “Methods, compounds and compositions for modulating blood brain barrier integrity and re-myelination” (University Health Network, priority 2015, dated 2020)
Entries after “also recorded” stand apart in the source; their conditions may differ.

T1: Neogenin (Homo sapiens, UniProt Q92859)
T1 construct: His-tagged proteins (2.5 μg/mL of extracellular-Neogenin or sRGMa or sRGMc) were then coated onto each well; His tag (coated format); Alkaline phosphatase (AP) fusion (solution format, Ec-Neogenin-AP); made in house
T1 sequence (Q92859 34-1105 limits assumed): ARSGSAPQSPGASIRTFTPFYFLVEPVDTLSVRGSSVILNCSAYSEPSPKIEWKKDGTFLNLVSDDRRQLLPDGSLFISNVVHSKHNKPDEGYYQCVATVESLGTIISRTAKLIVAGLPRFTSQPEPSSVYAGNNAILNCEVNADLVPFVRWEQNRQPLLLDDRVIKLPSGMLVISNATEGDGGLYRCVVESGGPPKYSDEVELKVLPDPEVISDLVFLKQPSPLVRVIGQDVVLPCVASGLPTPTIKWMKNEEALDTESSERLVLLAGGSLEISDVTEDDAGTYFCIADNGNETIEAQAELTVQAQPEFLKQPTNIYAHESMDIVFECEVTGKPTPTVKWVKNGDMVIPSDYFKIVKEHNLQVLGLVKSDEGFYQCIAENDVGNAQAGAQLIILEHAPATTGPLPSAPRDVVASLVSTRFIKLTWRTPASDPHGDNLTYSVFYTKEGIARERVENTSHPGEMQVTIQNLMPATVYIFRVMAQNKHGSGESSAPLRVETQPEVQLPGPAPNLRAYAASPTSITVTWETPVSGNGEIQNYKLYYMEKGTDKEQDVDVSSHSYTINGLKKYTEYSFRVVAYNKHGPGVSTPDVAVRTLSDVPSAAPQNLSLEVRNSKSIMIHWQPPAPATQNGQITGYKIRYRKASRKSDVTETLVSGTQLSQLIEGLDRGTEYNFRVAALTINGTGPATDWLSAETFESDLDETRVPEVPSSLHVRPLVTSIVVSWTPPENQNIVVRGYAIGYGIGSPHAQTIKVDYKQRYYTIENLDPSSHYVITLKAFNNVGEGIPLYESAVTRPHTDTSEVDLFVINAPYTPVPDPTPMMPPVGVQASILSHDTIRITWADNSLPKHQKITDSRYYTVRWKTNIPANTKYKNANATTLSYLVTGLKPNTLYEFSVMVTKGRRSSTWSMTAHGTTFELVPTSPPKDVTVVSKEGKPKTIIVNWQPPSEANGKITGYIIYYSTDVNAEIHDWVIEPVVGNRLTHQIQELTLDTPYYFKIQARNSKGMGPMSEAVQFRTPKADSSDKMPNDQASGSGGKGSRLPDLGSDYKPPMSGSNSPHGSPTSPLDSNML

B1: sRGMa: mouse RGMa cloned with His tag replacing the GPI-anchor, secreted soluble protein (protein)
chain: PHLRTFTDHFQTCKVQGAWPLIDNNYLNVQVTNTPVLPGSAATATSKLTIIFKNFQECVDQKVYQAEMDELPSAFADGSKNGGDKHGANSLKITEKVSGQHVEIQAKYIGTTIVVRQVGRYLTFAVRMPEEVVNAVEDRDSQGLYLCLRGCPLNQQIDFQAFRANAESPRRPAAASPSPVVPETFPYETAVAKCKEKLPVEDLYYQACVFDLLTTGDVNFTLAAYYALEDGKMLHSNKDKLHLFERTRELPGAVAAAA
modifications: left off: large carriers
notes: mouse RGMa cloned with His tag replacing the GPI-anchor, secreted soluble protein

Key:
b.end3 cells = assay: In vitro BBB permeability, Dextran-FITC extravasation in Boyden chamber; type: cell-based, mouse; conditions: b.end3 monolayer; for extravasation of Dextran-FITC in sRGMa-treated cells: 4 h pre-treatment (10 μg/mL sRGMc, 10 μg/mL C3 Transferase or 10 μM Y27632), then RGMa 18 h
Experimental: (A) Neogenin expression was analyzed on the membrane of b.end3 cells using immunohistochemical staining and by Western blot. (B) Crystal violet staining showing the b.end3 cell monolayer, (C) Representative diagram of the boyden chamber set up and (D) BBB permeability in b.end3 cells. Serum-starved cells were incubated for 4 h with RGMa (10 μg/ml), C3 Transferase (10 μg/mL) or Y27632 (10 μM) or sRGMc (10 μg/mL) and were then incubated with sRGMa (5 μg/mL) for 18 h followed by seeding of Dextran-FITC onto the upper chamber. Extravasation was measured over a period of 60 min as described in the Examples. n=3, performed in triplicates.
b.End3 endothelial cells were used to generate an in vitro model of the human EC barrier lining the choroid plexus. Briefly, b.end3 cells were plated on polyethylene-coated 0.4 μm pore size Boyden chambers (Corning) at a density of 2×10^5 cells per well in DMEM, and were allowed to grow for 72 h to reach confluency (verified using crystal violet staining). After 72 h, cells were serum starved for 6 h and pre-treated for 4 h with 10 μg/mL sRGMc, 10 μg/mL C3 Transferase or 10 μM Y27632. RGMa was then added to the wells for 18 h. The transwells were then transferred to a new plate containing 500 μl of HBSS and 200 μl 4-KDa Dextran-FITC (25 mg/ml; Sigma-Aldrich) was added to the upper chambers. Tracer diffusion across the EC monolayer was assessed in 30 min intervals for a period of 1.5 h. FITC signal, which represented the amount of extravasation through the monolayer was analyzed with using a microplate reader.

Neogenin = target: T1, Neogenin; assay: In vitro competition binding assay (AP-tagged proteins); conditions: pre-incubation of sRGMa with Ec-Neogenin-AP; compared to BSA control
Experimental: (C) Binding of Neogenin to bovine serum albumin (Neogenin+BSA), to RGMa (Neogenin+RGMa), and to RGMc (Neogenin+RGMc) in RGMa-AP and in RGMc-AP. Constructs overexpressing His-tagged sRGMa, sRGMc and the extracellular domains of Neogenin (Ec-Neogenin) were coated onto Poly-L-Lysine coated wells. Alkaline Phosphatase (AP)-tagged proteins (EC-Neogenin or RGMa or RGMc) were then added to each well and incubated at 37° C. for 1 h. Each well was washed and equilibrated with AP developing buffer (100 mM NaHCO3, 1 mM MgCl2). The reaction was initiated using AP developing buffer supplemented with p-nitrophenyl phosphate and then stopped following color development by adding 50 μl (0.1M) NaOH. The absorbance of each reaction was measured using a microplate autoreader at 405 nm as described in the Examples. (D) Binding of Neogenin-AP to bovine serum albumin (Neogenin-AP+BSA), to RGMa (Neogenin-AP+RGMa), and to RGMc (Neogenin-AP+RGMc). Competition assay was performed as described in the Examples and above but in which the constructs were reversed.
Using a 96-well microtiter plate (Corning), wells coated with 100 μl (10 μg/mL) of Poly-L-Lysine (Sigma-Aldrich) incubated at 4° C. overnight were then washed 3× with 100 μl of PBST (+0.02% Tween-20). […] The absorbance of each reaction was measured using a microplate autoreader (BioTek EL311 AutoReader) at 405 nm.

[1] = tested on: blood brain barrier of mice; assay: BBB permeability, Texas red dye leakage by widefield imaging; type: in vivo, mouse; conditions: mice injected with RGMa alone; vs vehicle
Experimental: Mice were treated with RGMa (70 ug), RGMa (70 ug)+RGMc (70 ug), or Vehicle (1% BSA) 18 h prior to widefield imaging (100-300 ms exposure) prior to and following intravenous injection of Texas Red dye (0.5 mg) over time. […] (B) Quantification of the leakage of Texas Red dye (measured as the number of leakage sites/mm^2).
BBB integrity was assessed in mice treated with PBS (Vehicle), RGMa, RGMc, RGMa+ immunoglobulin domain of Neogenin (4Ig). Widefield imaging was then carried out under a Olympus microscope (BX6 1WI) prior to and following the injection of Texas red dye (100 uL, I.V., 5 mg/ml) using 100-300 ms exposure. Recording was performed from 0 min to 35 min following injection. Texas dye leakage was also assessed in RGMc knockout (KO) and wild type (WT) mice. The leakage of Texas-red dye was quantified by a blind experimenter measuring the number of leakage sites/mm^2. (A) Representative images of Texas red dye: PBS (Vehicle), RGMa, RGMa+RGMc and RGMa+4Ig (immunoglobulin domain of Neogenin). Quantification of the leakage of Texas Red dye in animals treated with (B) PBS (Vehicle), RGMa or RGMa+RGMc or in RGMc KO and WT mice or (C) PBS (Vehicle), RGMa, RGMa+RGMc or RGMa+4Ig.
Mice injected with BSA, RGMc, RGMa, or RGMa+RGMc. […] Leakage of Texas red dye was quantified by a blind experimenter measuring the number of leakage sites/mm^2. […]

[2] = tested on: Claudin 5 in b.End3 cells; assay: Claudin 5 expression in endothelial cells by Western blot; type: cell-based, mouse; conditions: incubation with RGM proteins
Experimental: Cells were pretreated for 6 h with PBS, RGMc, RGMa or RGMc+RGMa. Western blotting was performed on the lysates with Claudin-5 and GAPDH antibodies.
Next, the BBB permeability was assessed by injecting mice with BSA, RGMa, RGMa plus RGMc and subsequently followed by assessment of Texas dye leakage using widefield imaging as an indication of BBB integrity. […] Thus, Claudin 5 expression following RGMa/c treatments of murine-derived brain endothelial cells (b.End3) was studied. B.En3 cells were grown up to 80% confluency and were treated with overnight incubation with RGM proteins.

reduction of binding intensity of RGMc to Neogenin (Neogenin) [fold] | Molecule | extravasation of Dextran-FITC in sRGMa-treated cells (b.end3 cells) | BBB integrity, leakage of Texas Red dye [1] | reduction in Claudin 5 levels [2] [fold] | extravasation of Dextran-FITC (b.end3 cells; sRGMa alone, vs vehicle-treated wells)
– | C[C@@H](N)[C@H]1CC[C@H](C(=O)Nc2ccncc2)CC1 [Y27632, reference compound] | reduced | – | – | –
– | C3 Transferase [reference compound] | reduced | – | – | –
3 | B1 | – | significantly disrupted BBB integrity; also recorded: significantly elevated leakage | 2 | increased
